These results are taken from IntAct's records for PubMed 21223507.

The chains are these.
B1: Eukaryotic translation initiation factor 2-alpha kinase 1 (Mus musculus), Q9Z2R9 (parent)
chain: MLGGSSVDGERDTDDDAAGAVAAPPAIDFPAEVSDPKYDESDVPAELQVLKEPLQQPTFPFLVANQLLLVSLLEHLSHVHEPNPLHSKQVFKLLCQTFIKMGLLSSFTCSDEFSSLRLHHNRAITHLMRSAKERVRQDPCQDNSYMQKIRSREIAFEAQTSRYLNEFEELAILGKGGYGRVYKVRNKLDGQHYAIKKILIKSATKTDCMKVLREVKVLAGLQHPNIVGYHTAWIEHVHVVQPQDRVPIQLPSLEVLSEQEGDRDQGGVKDNESSSSIVFAELTPEKEKPFGESEVKNENNNLVSYTANLVVRNSSESESSIELQEDGLTDLSVRPVVRHQLPLGHSSELEGNFTSTDESSEGNLNLLGQTEVRYHLMLHIQMQLCELSLWDWITERNKRSREYVDEAACPYVMASVATKIFQELVEGVFYIHNMGIVHRDLKPRNIFLHGPDQQVKIGDFGLACADIIQNADWTNRNGKGTRTHTSRVGTCLYASPEQLEGSQYDAKSDMYSLGVILLELFQPFGTEMERATVLTGVRTGRIPESLSKRCPVQAKYIQLLTGRNVSQRPSALQLLQSELFQTTGNVNLTLQMKIIEQEKEIEELKKQLSLLSQDRGLKR

The variants in one test derive from B1. To be noted: with if2a_mouse Eif2s1, Q6ZWX6.
Sequence of if2a_mouse Eif2s1, Q6ZWX6 (Q6ZWX6 whole entry): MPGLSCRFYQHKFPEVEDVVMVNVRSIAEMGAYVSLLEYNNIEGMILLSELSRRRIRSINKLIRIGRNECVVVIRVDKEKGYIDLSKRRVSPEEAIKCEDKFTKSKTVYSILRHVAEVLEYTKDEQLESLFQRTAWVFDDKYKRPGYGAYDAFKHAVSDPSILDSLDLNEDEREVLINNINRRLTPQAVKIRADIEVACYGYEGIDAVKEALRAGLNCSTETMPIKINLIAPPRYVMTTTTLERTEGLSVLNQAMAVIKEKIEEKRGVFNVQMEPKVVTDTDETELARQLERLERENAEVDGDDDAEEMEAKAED
As to K196R, the “effect of a mutation on the interaction” value is “disrupting interaction”.

The variants in the next test derive from B1. The settings on record: with if2a_mouse Eif2s1, Q6ZWX6. This is another data set of the same source.
As for H120A, the “effect of a mutation on the interaction” value is on record as “decreasing interaction”.

As to H119A, the “effect of a mutation on the interaction” value is given as “decreasing interaction”.

In another test the parent is B1. To be noted: with if2a_mouse Eif2s1, Q6ZWX6. The source holds these as a separate data set.
For the variant T485A, the “effect of a mutation on the interaction” value is “decreasing interaction”.

In another test the parent is B1. The settings on record: with if2a_mouse Eif2s1, Q6ZWX6. This is another data set of the same source.
For the variant Y193F, the “effect of a mutation on the interaction” value is reported as “decreasing interaction”.

Variants of B1 are the subject of another test. The settings on record: with if2a_mouse Eif2s1, Q6ZWX6. The source holds these as a separate data set.
Turning to S502A, the “effect of a mutation on the interaction” value is listed as “disrupting interaction”.

The variants in another test derive from B1. The settings on record: with if2a_mouse Eif2s1, Q6ZWX6. This is another data set of the same source.
As for T490A, the “effect of a mutation on the interaction” value was “disrupting interaction”.
